Patent US20260055205A1 (published 2026)
Where a chain is given by its changes, count along the chain named. Numbers in names are those of the source.

B1: PSMA.250 (bispecific antibody, V domains shown)
VH: QVQLVESGGGVVQPGRSLRLSCAASGRTFGIYVMGWYRQAPGKEREFVAAMSWSGSNRKVSDSVKGRFTISRDNSKNTLYLQMNSLRAEDTAVYYCAASNKLYGRTWYDFNESDYWGQGTQVTVSS
notes: TCE with CD3.23; also called AC3461
B2: PSMA.251 (bispecific antibody, V domains shown)
VH: B1 VH with M51I
notes: TCE with CD3.23; also called AC3462
B3: PSMA.252 (bispecific antibody, V domains shown)
VH: B1 VH with K101R, L102W
notes: TCE with CD3.23; also called AC3463
B4: CD3.68 (bispecific antibody, V domains shown)
VH: EVQLLESGGGIVQPGGSLKLSCAASGFTFNTYAMNWVRQAPGKGLEWVARIRSPYNNYATYYADSVKDRFTISRDDSKNTVYLQMNNLKTEDTAVYYCVRHENFGNSYVSWFAHWGQGTLVTVSS
VL: ELVVTQEPSLTVSPGGTVTLTCRSSNGAVTSSNYANWVQQKPGQAPRGLIGGTNKRAPGTPARFSGSLLGGKAALTLSGVQPEDEAVYYCALWYPNLWVFGGGTKLTVL
notes: paTCE with PSMA.5; also called AC3397; K52bP
B5: CD3.74 (bispecific antibody, V domains shown)
VH: B4 VH with P54K, Y55T
VL: B4 VL
notes: paTCE with PSMA.5; also called AC3403; Y52cT
B6: CD3.103 (bispecific antibody, V domains shown)
VH: B4 VH with A49G, P54K, Y58G, D68G, N87S
VL: B4 VL
notes: paTCE with PSMA.5; also called AC3432; A49G, Y52cG, D65G, N82bS
B7: CD3.85 (bispecific antibody, V domains shown)
VH: B4 VH with P54K, Y61D
VL: B4 VL
notes: paTCE with PSMA.5; also called AC3414; Y58D
B8: CD3.90 (bispecific antibody, V domains shown)
VH: B4 VH with P54K, Y62Q
VL: B4 VL
notes: paTCE with PSMA.5; also called AC3419; Y59Q
B9: CD3.96 (bispecific antibody, V domains shown)
VH: B4 VH with P54K, Y82D
VL: B4 VL
notes: paTCE with PSMA.5; also called AC3425; Y79D
B10: CD3.80 (bispecific antibody, V domains shown)
VH: B4 VH with P54K, Y58G
VL: B4 VL
notes: paTCE with PSMA.5; also called AC3409; Y55G
B11: CD3.81 (bispecific antibody, V domains shown)
VH: B4 VH with P54K, Y58F
VL: B4 VL
notes: paTCE with PSMA.5; also called AC3410; Y55F
B12: CD3.75 (bispecific antibody, V domains shown)
VH: B4 VH with P54K, Y55W
VL: B4 VL
notes: paTCE with PSMA.5; also called AC3404; Y52cW
B13: CD3.97 (bispecific antibody, V domains shown)
VH: B4 VH with P54K, Y82G
VL: B4 VL
notes: paTCE with PSMA.5; also called AC3426; Y79G
B14: CD3.73 (bispecific antibody, V domains shown)
VH: B4 VH with P54K, Y55P
VL: B4 VL
notes: paTCE with PSMA.5; also called AC3402; Y52cP
B15: CD3.100 (bispecific antibody, V domains shown)
VH: B4 VH with P54K, N87Q
VL: B4 VL
notes: paTCE with PSMA.5; also called AC3429; N82bQ
B16: CD3.105 (bispecific antibody, V domains shown)
VH: B4 VH with P54K
VL: B4 VL with G70E
notes: paTCE with PSMA.5; also called AC3434; G68E
B17: CD3.78 (bispecific antibody, V domains shown)
VH: B4 VH with P54K, N57D
VL: B4 VL
notes: paTCE with PSMA.5; also called AC3407; N54D
B18: CD3.71 (bispecific antibody, V domains shown)
VH: B4 VH with P54K, Y55G
VL: B4 VL
notes: paTCE with PSMA.5; also called AC3400; Y52cG
B19: CD3.70 (bispecific antibody, V domains shown)
VH: B4 VH with P54K, Y55R
VL: B4 VL
notes: paTCE with PSMA.5; also called AC3399; Y52cR
B20: CD3.91 (bispecific antibody, V domains shown)
VH: B4 VH with P54K, Y62G
VL: B4 VL
notes: paTCE with PSMA.5; also called AC3420; Y59G
B21: CD3.89 (bispecific antibody, V domains shown)
VH: B4 VH with P54K, Y62E
VL: B4 VL
notes: paTCE with PSMA.5; also called AC3418; Y59E
B22: CD3.104 (bispecific antibody, V domains shown)
VH: B4 VH with P54K
VL: B4 VL with L69Q
notes: paTCE with PSMA.5; also called AC3433; L67Q
B23: CD3.99 (bispecific antibody, V domains shown)
VH: B4 VH with P54K, N87E
VL: B4 VL
notes: paTCE with PSMA.5; also called AC3428; N82bE
B24: CD3.88 (bispecific antibody, V domains shown)
VH: B4 VH with P54K, Y62D
VL: B4 VL
notes: paTCE with PSMA.5; also called AC3417; Y59D
B25: CD3.106 (bispecific antibody, V domains shown)
VH: B4 VH with P54K
VL: B4 VL with L69D
notes: paTCE with PSMA.5; also called AC3435; L67D
B26: CD3.95 (bispecific antibody, V domains shown)
VH: B4 VH with P54K, D68G
VL: B4 VL
notes: paTCE with PSMA.5; also called AC3424; D65G
B27: CD3.72 (bispecific antibody, V domains shown)
VH: B4 VH with P54K, Y55K
VL: B4 VL
notes: paTCE with PSMA.5; also called AC3401; Y52cK
B28: CD3.98 (bispecific antibody, V domains shown)
VH: B4 VH with P54K, Y82S
VL: B4 VL
notes: paTCE with PSMA.5; also called AC3427; Y79S
B29: CD3.101 (bispecific antibody, V domains shown)
VH: B4 VH with P54K, N87S
VL: B4 VL
notes: paTCE with PSMA.5; also called AC3430; N82bS
B30: CD3.83 (bispecific antibody, V domains shown)
VH: B4 VH with P54K, A59G
VL: B4 VL
notes: paTCE with PSMA.5; also called AC3412; A56G
B31: CD3.102 (bispecific antibody, V domains shown)
VH: B4 VH with P54K, N87Y
VL: B4 VL
notes: paTCE with PSMA.5; also called AC3431; N82bY
B32: CD3.84 (bispecific antibody, V domains shown)
VH: B4 VH with P54K, A59T
VL: B4 VL
notes: paTCE with PSMA.5; also called AC3413; A56T
B33: CD3.86 (bispecific antibody, V domains shown)
VH: B4 VH with P54K, Y61E
VL: B4 VL
notes: paTCE with PSMA.5; also called AC3415; Y58E
B34: CD3.109 (bispecific antibody, V domains shown)
VH: B4 VH with P54K
VL: B4 VL with L68N
notes: paTCE with PSMA.5; also called AC3438; L66N
B35: CD3.92 (bispecific antibody, V domains shown)
VH: B4 VH with P54K, Y62W
VL: B4 VL
notes: paTCE with PSMA.5; also called AC3421; Y59W
B36: CD3.94 (bispecific antibody, V domains shown)
VH: B4 VH with P54K, A63P
VL: B4 VL
notes: paTCE with PSMA.5; also called AC3423; A60P
B37: CD3.69 (bispecific antibody, V domains shown)
VH: B4 VH with P54K, Y55A
VL: B4 VL
notes: paTCE with PSMA.5; also called AC3398; Y52cA
B38: CD3.77 (bispecific antibody, V domains shown)
VH: B4 VH with P54K, N56E
VL: B4 VL
notes: paTCE with PSMA.5; also called AC3406; N53E
B39: CD3.82 (bispecific antibody, V domains shown)
VH: B4 VH with P54K, Y58W
VL: B4 VL
notes: paTCE with PSMA.5; also called AC3411; Y55W
B40: CD3.108 (bispecific antibody, V domains shown)
VH: B4 VH with P54K
VL: B4 VL with L68K
notes: paTCE with PSMA.5; also called AC3437; L66K
B41: CD3.79 (bispecific antibody, V domains shown)
VH: B4 VH with P54K, N57E
VL: B4 VL
notes: paTCE with PSMA.5; also called AC3408; N54E
B42: CD3.107 (bispecific antibody, V domains shown)
VH: B4 VH with P54K
VL: B4 VL with L68S
notes: paTCE with PSMA.5; also called AC3436; L66S
B43: CD3.93 (bispecific antibody, V domains shown)
VH: B4 VH with P54K, A63K
VL: B4 VL
notes: paTCE with PSMA.5; also called AC3422; A60K
B44: CD3.110 (bispecific antibody, V domains shown)
VH: B4 VH with P54K
VL: B4 VL with L68T
notes: paTCE with PSMA.5; also called AC3439; L66T
B45: CD3.87 (bispecific antibody, V domains shown)
VH: B4 VH with P54K, Y61T
VL: B4 VL
notes: paTCE with PSMA.5; also called AC3416; Y58T

Target: T1, human PSMA (human, UniProt Q04609 44-750, limits assumed)
T1 construct: also called huPSMA; hPSMA
Test: binding screen

T1 sequence (Q04609 44-750 limits assumed): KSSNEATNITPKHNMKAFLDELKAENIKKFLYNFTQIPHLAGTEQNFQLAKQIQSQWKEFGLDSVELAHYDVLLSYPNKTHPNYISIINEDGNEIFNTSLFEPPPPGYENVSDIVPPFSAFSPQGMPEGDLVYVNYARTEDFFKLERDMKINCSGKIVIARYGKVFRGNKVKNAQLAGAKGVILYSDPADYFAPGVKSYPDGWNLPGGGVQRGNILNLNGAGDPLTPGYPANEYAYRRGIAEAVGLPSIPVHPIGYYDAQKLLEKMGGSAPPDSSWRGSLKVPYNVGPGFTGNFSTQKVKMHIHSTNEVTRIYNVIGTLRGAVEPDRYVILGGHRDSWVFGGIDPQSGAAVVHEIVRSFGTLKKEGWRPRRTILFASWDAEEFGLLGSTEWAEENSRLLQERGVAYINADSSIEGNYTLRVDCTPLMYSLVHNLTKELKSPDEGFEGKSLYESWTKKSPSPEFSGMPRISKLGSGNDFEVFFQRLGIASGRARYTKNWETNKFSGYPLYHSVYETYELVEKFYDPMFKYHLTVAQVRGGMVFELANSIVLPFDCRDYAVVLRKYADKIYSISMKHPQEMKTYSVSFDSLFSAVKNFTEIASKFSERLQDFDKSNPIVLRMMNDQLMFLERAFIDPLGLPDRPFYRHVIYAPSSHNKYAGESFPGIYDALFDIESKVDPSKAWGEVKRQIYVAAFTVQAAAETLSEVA

| Kd | Binder |
| --- | --- |
| 6.2 nM | B1 |
| 5.1 nM | B2 |
| 15.9 nM | B3 |

Target: T2, human CD3 epsilon (human, UniProt P07766 23-126, limits assumed)
T2 construct: also called huCD3e
Test: Octet, crude lysate
Description: To achieve this, Pool 1 was created, which included 74 paTCE molecules, each containing PSMA.5 and one of the 74 CD3.23 mutation variants. Single mutations were chosen based on analyses including CD3.23 PTE score analysis (using internal PTE algorithm v12) and structural analysis. Structural considerations included: possible contact disruption, anticipated steric clashes, side chain charge maintenance and possible pockets filling. Stability and affinity of the individually expressed molecules in the form of crude lysate was evaluated by Octet (ForteBio).

T2 sequence (P07766 23-126 limits assumed): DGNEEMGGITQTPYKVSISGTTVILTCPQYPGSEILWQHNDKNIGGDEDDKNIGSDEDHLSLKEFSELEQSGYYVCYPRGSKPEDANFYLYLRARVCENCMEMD

| Kd | Binder |
| --- | --- |
| 51 nM | B4 |
| 11.1 nM | B5 |
| 11.4 nM | B6 |
| 939 nM | B7 |
| 7.2 nM | B8 |
| 9.8 nM | B9 |
| 11.3 nM | B10 |
| 6.1 nM | B11 |
| 10.5 nM | B12 |
| 121 nM | B13 |
| 33.1 nM | B14 |
| 7.1 nM | B15 |
| 4.9 nM | B16 |
| 7.4 nM | B17 |
| 20.1 nM | B18 |
| 3.8 nM | B19 |
| 8.3 nM | B20 |
| 9.7 nM | B21 |
| 4.6 nM | B22 |
| 5.9 nM | B23 |
| 63.2 nM | B24 |

| Kd | Binder |
| --- | --- |
| 6.1 nM | B25 |
| 5.4 nM | B26 |
| 5.1 nM | B27 |
| 9.6 nM | B28 |
| 4.8 nM | B29 |
| 8.2 nM | B30 |
| 5.2 nM | B31 |
| 10.7 nM | B32 |
| 183 nM | B33 |
| 8.3 nM | B34 |
| 37.2 nM | B35 |
| 8.2 nM | B36 |
| 11.5 nM | B37 |
| 575 nM | B38 |
| 7.8 nM | B39 |
| 3.2 nM | B40 |
| 8.3 nM | B41 |
| 7.3 nM | B42 |
| 8 nM | B43 |
| 8.9 nM | B44 |
| 17.9 nM | B45 |

Target: T2, human CD3 epsilon
Test: Octet, crude lysate
Remark: another data set of the same source
Procedure, shortened: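 Binding of anti-CD3 paTCE variants to human and cynomolgus CD3 measured by Octet, using either purified protein or individually expressed crude lysate. Variants were paired with PSMA.262, except CD3.23, which was paired with PSMA.5.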

| Kd | Binder |
| --- | --- |
| 13.5 nM | B6 |
